Here are results for 10 substances from patent US20080286819A1.

For assay [1], the target named is Human soluble FcγRIIA^131H (human) (UniProt P12318). Kind of assay: SPR (Biacore), antibody immobilized, soluble FcγR injected. For orientation: SPR reads the build-up and loss of mass on a sensor chip optically.
The target of assay [2] is Human soluble FcγRIIA^131R (human) (UniProt P12318). Described as above.
For assay [3], the target named is Human soluble FcγRIIIA^158F (human) (UniProt P08637). Described as above.
UniProt P08637, sequence (P08637 17-208): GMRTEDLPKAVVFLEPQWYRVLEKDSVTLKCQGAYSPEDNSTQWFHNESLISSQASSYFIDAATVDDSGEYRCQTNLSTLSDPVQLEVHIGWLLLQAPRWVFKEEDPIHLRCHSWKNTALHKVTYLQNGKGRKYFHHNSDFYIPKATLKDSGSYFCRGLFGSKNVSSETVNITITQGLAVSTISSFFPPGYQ
Assay [4] deals with Mouse soluble FcγRI (mouse) (UniProt P26151). The description is as above.
UniProt P26151, sequence (P26151 25-297): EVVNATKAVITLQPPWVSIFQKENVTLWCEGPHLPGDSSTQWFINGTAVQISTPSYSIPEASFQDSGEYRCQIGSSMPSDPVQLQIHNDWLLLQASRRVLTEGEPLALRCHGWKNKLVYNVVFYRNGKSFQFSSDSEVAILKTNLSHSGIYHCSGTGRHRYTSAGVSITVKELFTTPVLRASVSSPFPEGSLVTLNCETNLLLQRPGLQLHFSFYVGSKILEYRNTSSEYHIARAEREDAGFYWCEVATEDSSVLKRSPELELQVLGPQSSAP
Assay [5] addresses Mouse soluble FcγRIIB (mouse) (UniProt P08101). Described as above.
UniProt P08101, sequence (P08101 30-210): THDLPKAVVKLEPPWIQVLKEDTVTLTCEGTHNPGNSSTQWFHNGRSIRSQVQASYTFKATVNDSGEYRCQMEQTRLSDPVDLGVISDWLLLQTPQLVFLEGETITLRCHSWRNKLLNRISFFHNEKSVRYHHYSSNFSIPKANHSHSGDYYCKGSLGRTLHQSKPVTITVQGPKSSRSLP
For assay [6], the target named is Mouse soluble FcγRIII (mouse) (UniProt P08508). The description is as above.
UniProt P08508, sequence (P08508 31-215): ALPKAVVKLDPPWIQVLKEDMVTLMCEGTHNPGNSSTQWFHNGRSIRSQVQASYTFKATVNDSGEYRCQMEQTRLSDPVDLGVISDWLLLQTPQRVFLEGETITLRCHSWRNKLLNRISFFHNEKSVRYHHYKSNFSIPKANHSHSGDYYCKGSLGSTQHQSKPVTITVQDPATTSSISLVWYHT
Assay [7] addresses Mouse soluble FcγRIV (mouse). Described as above.
Assay [8] concerns the target Human soluble FcγRIIB (human) (UniProt P31994). Kind of assay: SPR, soluble human Fc-receptor.
UniProt P31994, sequence (P31994 43-217): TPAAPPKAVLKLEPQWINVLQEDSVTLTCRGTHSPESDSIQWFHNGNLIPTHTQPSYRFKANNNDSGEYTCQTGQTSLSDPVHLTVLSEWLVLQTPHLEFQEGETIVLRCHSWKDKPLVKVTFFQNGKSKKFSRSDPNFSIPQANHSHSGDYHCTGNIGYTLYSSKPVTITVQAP
Assay [9] addresses Human soluble FcγRIIIA^158F (human) (UniProt P08637). Briefly: SPR, soluble human Fc-receptor.
The target of assay [10] is Human soluble FcγRIIB (human) (UniProt P31994). Briefly: SPR (Biacore), antibody immobilized, soluble FcγR injected.
Assay [11] concerns the target Human soluble FcγRIIA^131H (human) (UniProt P12318). Kind of assay: SPR, soluble human Fc-receptor.
The target is the same in assay [12]. Kind of assay: ratio of SPR affinities; reference human FcγRIIB.
The target of assay [13] is Human soluble FcγRIIIA^158F (human) (UniProt P08637). Briefly: ratio of SPR affinities; reference human FcγRIIB.
The target of assay [14] is Human soluble FcγRIIB (human) (UniProt P31994). Kind of assay: SPR; reference human FcγRIIIA and FcγRIIA.
The target of assay [15] is Human soluble FcγRIIA^131H (human) (UniProt P12318). Briefly: SPR (Biacore), antibody immobilized; + = detectable but very low binding.
The target of assay [16] is Human soluble FcγRIIA^131R (human) (UniProt P12318). Described as above.
For assay [17], the target named is Mouse soluble FcγRIIB (mouse) (UniProt P08101). Described as above.
For assay [18], the target named is Mouse soluble FcγRIII (mouse) (UniProt P08508). The description is as above.
The target of assay [19] is Mouse soluble FcγRIV (mouse). The description is as above.
The target in assay [20] is Mouse soluble FcγRIV (mouse). Kind of assay: SPR; reference mouse FcγRIIB.
The target of assay [21] is Mouse soluble FcγRIV (mouse). Briefly: ratio of SPR affinities; reference mouse FcγRIIB.
The target in assay [22] is Human soluble FcγRIIIA^158F (human) (UniProt P08637). Briefly: SPR (Biacore), antibody immobilized; + = detectable but very low binding.
Assay [23] addresses Mouse soluble FcγRIIB (mouse) (UniProt P08101). Briefly: SPR; reference mouse FcγRIII.
Assay [24] addresses Mouse soluble FcγRIII (mouse) (UniProt P08508). Kind of assay: ratio of SPR affinities; reference mouse FcγRIIB.

Take “hIgG1 (FITC-isotype switch variant, human Fc-switch variant of the 4-4-20 antibody)”: the Ka in assay [1] turned out to be 380000 M⁻¹; in [2] it was 270000 M⁻¹; in assay [3], 430000 M⁻¹; in [4] it was 3.8e+06 M⁻¹; in [5], 200000 M⁻¹; in assay [6], 35000 M⁻¹. This substance displayed a Ka in [7] of 2.2e+06 M⁻¹.

The term Kd denotes a measure of binding affinity in units of concentration. On to “FITC-IgG1-Fucose (human IgG1 Fc-switch variant of the 4-4-20 antibody lacking fucose)”, for which the Ka in assay [8] stood at 78100 M⁻¹; in [9], 5.97e+06 M⁻¹. The Kd was found to be 12.8 µM in assay [8] and 0.168 µM in [9].

Turning to “mIgG2a (FITC-isotype switch variant) (antibody)”, the Ka stood at 170000 M⁻¹ in assay [1]; 320000 M⁻¹ in [2]; 160000 M⁻¹ in [10]; 1.8e+08 M⁻¹ in assay [4]; 420000 M⁻¹ in assay [5]; 680000 M⁻¹ in assay [6]. The Ka in [7] came out at 2.9e+07 M⁻¹.

As for “FITC-IgG2-Fucose (human IgG2 Fc-switch variant of the 4-4-20 antibody lacking fucose)”, the Ka in assay [11] amounted to 135000 M⁻¹; in assay [8] it was 25400 M⁻¹; in assay [9], 144000 M⁻¹. The values for the Kd in [11], in assay [8] and in assay [9] were 7.4 µM, 39.4 µM and 6.93 µM, respectively. For the same substance, the A/I ratio IIA/IIB (KA for FcγRIIA over KA for FcγRIIB) in assay [12] worked out at 5.31. Also, in assay [13], the A/I ratio IIIA/IIB (KA for FcγRIIIA over KA for FcγRIIB) is 5.67.

“hIgG4 (FITC-isotype switch variant) (antibody)” returned a fold higher affinity than to FcγRIIIA and FcγRIIA in assay [14] of more than 4.8 fold. Also, the Ka in [10] is 48000 M⁻¹; in [4] it was 72000 M⁻¹; in [15] it was less than 10000 M⁻¹; in assay [16], less than 10000 M⁻¹; in [17], less than 10000 M⁻¹; in assay [18] it was less than 10000 M⁻¹. Also, the Ka in assay [19] was less than 10000 M⁻¹.

In turn, “mIgG2b (FITC-isotype switch variant) (antibody)” returned a fold higher affinity than to FcγRIIB in [20] of 10 fold. Moreover, the A/I (ratio of KA for the activating receptor FcγRIV to KA for the inhibitory FcγRIIB) in assay [21] is 7. Besides, the Ka in assay [1] amounted to 120000 M⁻¹; in assay [2] it was 91000 M⁻¹; in assay [10] it was 120000 M⁻¹; in [3], 10000 M⁻¹; in assay [5] it was 2.2e+06 M⁻¹; in assay [6], 640000 M⁻¹. The substance also yielded a Ka in assay [7] of 1.7e+07 M⁻¹.

With “hIgG2 (FITC-isotype switch variant, human Fc-switch variant of the 4-4-20 antibody)”, the Ka in assay [1] is 120000 M⁻¹; in assay [2], 21000 M⁻¹; in [22] it was less than 10000 M⁻¹; in assay [17], less than 10000 M⁻¹; in assay [18], less than 10000 M⁻¹.

As for “mIgG3 (FITC-isotype switch variant) (antibody)”, the Ka in assay [15], in assay [16] and in assay [22] was less than 10000 M⁻¹ in each case.

The substance “mIgG1 (FITC-isotype switch variant) (antibody)” gave a fold higher affinity than to FcγRIII in [23] of 10 fold. Further, in assay [24], the A/I (ratio of KA for the activating receptor FcγRIII to KA for the inhibitory FcγRIIB) came out at 0.1. Moreover, the Ka was 40000 M⁻¹ in assay [1]; 250000 M⁻¹ in [2]; 100000 M⁻¹ in [10]; 3.3e+06 M⁻¹ in assay [5]; 310000 M⁻¹ in assay [6]; less than 10000 M⁻¹ in assay [22].

As for “hIgG3 (FITC-isotype switch variant) (antibody)”, the Ka in [1] amounted to 120000 M⁻¹; in [2], 240000 M⁻¹; in [10] it was 70000 M⁻¹; in [3], 180000 M⁻¹; in assay [4], 1.2e+06 M⁻¹; in assay [5], 83000 M⁻¹. In addition, in [19], the Ka was less than 10000 M⁻¹.
